Assay results taken from patent US9750814B2, “Polypeptides to inhibit epstein barr viral protein BHRF1 and B cell lymphoma family proteins” (priority 2014, dated 2017).

What was measured:
Mcl-1 = target: T1, Mcl-1 (Homo sapiens, UniProt Q07820); assay: Bio-layer interferometry (BLI), immobilized Mcl-1; format: binding; details: BLI titrations
T1 construct: Mcl-1 a.a; made in house; host or cells: E. coli BL21* (DE3)
Description: 11-175 (NP_065129.1), Mcl-1 a.a. […] For later BLI analysis, Bcl-B and Bfl-1 were genetically fused to C-terminal maltose-binding-protein with an avi-6his tag for improved solution properties. Codon usage was optimized for E. coli expression. […] The genes for individually-tested designed proteins were assembled from oligos (Hoover and Lubkowski, 2002) and cloned into pET29b (NdeI-XhoI sites) with C-terminal 6his tags for purification from E. coli, or cloned into PETCON (NdeI-XhoI sites; (Fleishman et al., 2011)) for yeast surface expression. Alternative tags were added using PCR methods. Point mutations were made by overlapping PCR (Procko et al., 2013). Error-prone PCR with an average error rate of 1.3 amino acid substitutions per clone used GeneMorph II Random Mutagenesis (Agilent Technologies).
Purified avi-6his-tagged ligands (20 μM) in reaction buffer (250 mM potassium glutamate, 20 mM Tris-Cl [pH 7.5], 50 mM bicine [pH 8.3], 10 mM ATP, 10 mM MgOAc, 100 μM d-biotin) were enzymatically biotinylated with 150 U/μl BirA (Avidity) at room temperature overnight, followed by purification with NiNTA-agarose and SEC. Biotinylated ligands were stored at 4° C. in 150 mM NaCl, 20 mM Tris-Cl (pH 7.5), 1 mM DTT, 0.02% sodium azide.
Data were collected on an Octet RED96 (Forte Bio) and processed using the instrument's integrated software. […] Biosensors were dipped in solutions containing the analyte of interest to measure association, and transferred back to empty binding buffer for monitoring dissociation. Kinetic constants were determined from the mathematical fit of a 1:1 binding model.

Mcl-1-dependent MEF line = assay: Long-term survival (colony) assay, Mcl-1-dependent MEFs; format: cell-based, mouse; details: seven day colony survival, doxycycline-induced expression
Description: Mouse embryonic fibroblasts were generated from E13-E14.5 embryos derived from CreERT2/Bcl-x^fl/fl/Mcl-I^fl/fl C57BL/6 mice (Kelly et al., 2014) and immortalized (at passage 2-4) with SV40 large T antigen. Retroviral expression constructs in the pMIG vector (Murine Stem Cell Virus-IRES-GFP) expressing each FLAG-tagged pro-survival protein were transiently transfected using LIPOFECTAMINE™ (Invitrogen), into Phoenix ecotropic packaging cells. Filtered virus-containing supernatants were used to infect the MEFs by spin inoculation as previously described (Lee et al., 2008). Cells stably expressing each pro-survival protein were selected by sorting GFP^+ve cells 24 hours after spin inoculation and protein expression verified by Western blotting using an anti-FLAG antibody. Following verification of exogenous pro-survival protein expression, each cell line was treated with 1 μM Tamoxifen (Sigma-Aldrich) to enable deletion of endogenous Mcl-1 and Bcl-xL. Deletion of endogenous Mcl-1 and Bcl-xL was shown by Western blotting using anti-Mcl-1 (Rockland Clone, 600-401-394) and anti-Bcl-xL (BD Transduction Laboratories Clone 44/Bcl-x) antibodies. Cells were maintained in DME Kelso medium supplemented with 10% (v/v) fetal bovine serum, 250 mM L-asparagine and […] 2-mercaptoethanol.
Inducible αMCL1 and αBFL1 constructs were generated in a lentiviral vector described in Aubrey et al. (2015). […]

colon cancer cell lines = assay: Long-term survival assay, colon cancer cell lines; format: cell-based, human; details: colon cancer lines
Method: Inducible αMCL1 and αBFL1 constructs were generated in a lentiviral vector described in Aubrey et al. (2015). Ligand expression is linked via the T2A peptide to mCherry™ fluorescent reporter protein. […] Viral supernatants were then filtered prior to target cell transduction. […] For infection of MEFs and colon cancer cell lines, equal volume of virus-containing supernatant was added to target cells pre-incubated with 10 ng/μL polybrene, and centrifuged at 2500 rpm for 2 hours at 32° C. Following spin inoculation, cells were then incubated overnight at 37° C. Cells expressing the doxycycline-inducible constructs were then selected by sorting mCherry^+ve cells. MEFs were maintained in DME Kelso medium supplemented with 10% (v/v) FBS, 250 mM L-asparagine and […] 2-mercaptoethanol. Colon cancer cell lines were maintained in DMEM/F-12 supplemented with 10% (v/v) FBS.
MEF and colon cancers were seeded in 6-well tissue culture plates in 2 mL culture media at 150 cells per mL. The next day and every 48 hours following, doxycycline was added at a final concentration of 1 μg/mL to each well, while nothing was added to control wells.

[1] = test system: Bim association with pro-survival homologs in HeLa cells; assay: Bim co-immunoprecipitation in HeLa cells; format: cell-based, human
Method: Cells were harvested, washed with PBS, and extracted with ice-cold Chaps buffer (40 mM Tris-HCl, pH 7.5, 150 mM NaCl, 1 mM EDTA, 2% CHAPS, and Complete Protease Inhibitors [Roche]) for 20 minutes, on ice. Extracts were spun down at 10,000 g for 10 min and supernatants were removed and used for SDS-PAGE analysis. Expression of proteins of interest was analyzed using antibodies against Bcl-2, Bcl-xL, Mcl-1 (as above), Bfl-1 (ProsSci, Inc.), Bim (BD Biosciences), and tubulin (SigmaAldrich). For immunoprecipitation experiments, 1,000 μg protein lysates were pre-cleared and then incubated with 3 μg Bim antibody for 2 hours at 4° C., followed by addition of Protein A/G Plus agarose beads (Santa Cruz Biotechnology) and overnight incubation with rotation at 4° C. Negative control reactions used normal IgG. Immunoprecipitates were washed four times with lysis buffer and eluted with loading buffer at 95° C., 2 times for 10 min, followed by SDS-PAGE analysis.

BCL2 family proteins = assay: BLI specificity across BCL2 family proteins (next tightest binder versus intended target); parameters: species or system human; details: fold weaker affinity for next tightest binding BCL2 family protein versus intended target

T1 sequence (Q07820 172-327): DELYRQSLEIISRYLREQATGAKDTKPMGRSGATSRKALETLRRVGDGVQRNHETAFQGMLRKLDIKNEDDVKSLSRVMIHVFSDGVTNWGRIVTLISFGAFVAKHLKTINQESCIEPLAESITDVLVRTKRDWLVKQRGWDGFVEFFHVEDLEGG

B1: MINDI: SEQ ID NO: 2; target Mcl-1 (protein)
chain: ADPKKVLDKAKDQAENRVRELKQVLEELYKEARKLDLTQEMRKKLIERYAAAIIRAIGDINNAIYQAKQEAEKLKKAGLVNSQQLDELLRRLDELQKEASRKANEYGREFELKLEY
- affinity for other BCL2 family members relative to Mcl-1 (Mcl-1): over ten thousand-fold weaker affinity
- decrease in survival (Mcl-1-dependent MEF line): 90±11%
- effect on long-term survival (in words) (colon cancer cell lines): negligible effect
- effect on Bim binding profile ([1]; Bcl-2+ HeLa cells): no effect
- effect on Bim binding profile ([1]; wild-type HeLa cells): displacement of Bim from Mcl-1
- Specificity (BCL2 family proteins): 93,000
